Results on one substance are retold here after publication PMC8412950.

This test addresses NRC3 NB-ARC domain (NRC3^NB-ARC, Val-152 to Ser-507) (Nicotiana benthamiana). The test is described as follows: SEC.

A word on the stoichiometry N: it is a count of units in the complex or per binding partner. For “Recombinant SS15 protein (Ser-25 to Ile-246, lacking signal peptide) (domain or fragment)”, the stoichiometry N was 1.
